Assay results published in patent US8252764B2, “Compositions and methods of use of targeting peptides against placenta and adipose tissues” (priority 2000, dated 2012).
Read-outs that look alike come from different tables or passages of the source.

Columns and labels:
[1] = system: mouse villous yolk sac (vys); test: Peptide localization in placenta (immunohistochemistry, FITC immunofluorescence); type: in vivo; settings: 18 dpc pregnant mice, intravenous, 6 h
Procedure: Fusion and Recombinant Peptides Carboxyfluorescein (FITC)-conjugated [sequence] […] The FITC-peptide stocks were made by dissolving lyophilized peptides in DMSO to a concentration of 20 mM, after which the peptides were diluted to 1 mM with PBS (phosphate buffered saline) and aliquots were frozen until use. The [sequence] (SEQ ID NO:144) peptide and an unrelated control peptide, [sequence] (SEQ ID NO:87), fused in-frame with GST at the amino-terminus were purified to approximately 90% purity using the BugBuster GST Bind Kit (Novagen, Madison, Wis.). Purified peptides were buffer-exchanged into PBS using Centricon PL-10 columns (Millipore, Bedford, Mass.) and the aliquots were frozen until use. […]
Peptide Localization in Tissues Immunohistochemistry on sections of formalin-fixed, paraffin-embedded mouse tissue was performed as described (Pasqualini et al., 2000; Pasqualini and Ruoslahti, 1996): For phage-peptide immunolocalization, a rabbit anti-fd phage antibody (Sigma Chemicals, St. Louis, Mo.) was used at 1:1,000 dilution and detected with a secondary horseradish peroxidase (HRP)-conjugated antibody. For GST-peptide immunolocalization, a goat anti-GST antibody (Amersham, Piscataway, N.J.) was used at 1:1,000 dilution and detected with a secondary alkaline phosphatase (AP)-conjugated antibody. […]

[2] = system: white adipose vasculature; test: Peptide localization in white fat; type: in vivo, mouse; settings: intravenous
Source text: (A) and (B) Anti-phage immunohistochemistry in paraffin sections of subcutaneous white fat from leptin-deficient mice intravenously injected 6 hr prior to tissue processing. (C) and (D) Peptide-FITC immunofluorescence in paraffin sections of subcutaneous white fat from leptin-deficient mice intravenously injected 6 hr prior to tissue processing. […] (SEQ ID NO:22) linked to FITC peptide, or (D) control. CARAC (SEQ ID NO:12) linked to FITC peptide. […] Bar: 10 μm.
(A), (C) and (E) Peptide-FITC immunofluorescence or (B), (D) and (F) lectin-rhodamine immunofluorescence in blood vessels of (A), (B), (E) and (F) subcutaneous white fat or (C) and (D) pancreas controls detected in paraffin-sectioned tissues from c57bl/6 mice intravenously co-injected 5 min prior to tissue processing. […] (SEQ ID NO:22) linked to FITC peptide and lectin-rhodamine; or (E) and (F) control CARAC (SEQ ID NO:12) linked to FITC peptide and lectin-rhodamine; (B), (D) and (F) Arrows show endothelium marked with lectin. […] Bar: 10 μm.
Staining of formalin-fixed, paraffin-embedded mouse tissue sections was performed (Pasqualini & Rouslahti, 1996; Pasqualini et al., 2000). For phage-peptide immunolocalization, 10^10 TU of [sequence] […] Apoptosis was detected using standard TUNEL immunohistochemistry and an HRP-conjugated antibody. […]

placenta [3] = system: placenta
Source text: The CARAC peptide (SEQ ID NO:12), an adipose targeting peptide (FE, TREVHRS, SEQ ID NO:13) or fd-tet phage were used as non-placental targeting controls.

placental transporter = test: Phage recovery from embryos (materno-fetal transfer); type: in vivo, mouse; settings: excess of co-injected peptide
Procedure: FIG. 4. The TPKTSVT (SEQ ID NO:5) peptide specifically binds a placental transporter. (A) Recovery of indicated phage from embryos carried by 18 dpc pregnant mice intravenously injected (tail vein) with 10^10 TU of the indicated phage 6 h prior to phage recovery or immunohistochemistry. […] TPKTSVT (SEQ ID NO:5) phage were administered alone (dark cross-hatched) or co-administered with control-GST (black) or TPKTSVT (SEQ ID NO:5) linked to GST (white bar). Shown are mean+/−SEM (standard error) from different embryos. (B-D) Anti-phage IMP immunohistochemistry (arrowheads) in paraffin sections of the vys from the corresponding mice, as indicated. Asterisks mark embryonic capillaries. Bar: 20 μm.
Phage Recovery Mouse placentas and embryonic livers were individually weighed, ground with a glass Dounce homogenizer and suspended in 1 ml of Dulbecco's Modified Eagle's Medium (DMEM) containing proteinase inhibitors (DMEM-prin—1 mM PMSF, 20 μg/ml aprotinin, and 1 μg/ml leupeptin). The suspension was vortexed and washed three times with DMEM-prin. […]
The TPKTSVT (SEQ ID NO:5) Peptide Binds to a Placental Transporter The TPKTSVT (SEQ ID NO:5) peptide localizes to the vys (FIG. 3), which is the tissue primarily responsible for materno-fetal transport in mice. […] Either TPKTSVT (SEQ ID NO:5)-phage or control phage were injected into pregnant mice and the recovery of phage from embryos was determined.

placenta [4] = test: Peptide embryotoxicity in pregnant mice; type: in vivo, mouse
Source text: FIG. 7. TPKTSVT (SEQ ID NO:5) peptide inhibits mouse pregnancy and is teratogenic. (A) Pregnancy courses (representative from 5 independent experiments) in mice subcutaneously injected with the indicated phage or peptides were monitored by daily weighing of the mice upon each injection (arrows). (B) Appearance of a normally developed 20 dpc embryo (left) for control GST fusion treatment compared to a representative 20 dpc embryo (right) resulting from TPKTSVT (SEQ ID NO:5) linked to GST fusion treatment. A severely teratogenic phenotype is observed with the placental targeting fusion peptide. (C) and […]) Hematoxylin/eosin staining of 20 dpc paraffin-embedded placentas derived from mice injected for 7 days with (C) control GST fusion or (D) the TPKTSVT (SEQ ID NO:5) linked to GST fusion peptide. Note hemorrhage (black asterisks), necrosis (white asterisks), and fibrosis (arrowheads). Bar: 500 μm (50 μm for insets).
Peptide Embryotoxicity For peptide embryotoxicity studies, agents were injected at the following daily doses: GST-peptides 0.1 mg (˜3 nMoles), FITC-peptides 50 μg (˜30 nMoles),and phage-peptides 10″ TU. All agents were dissolved in PBS. Mice were injected subcutaneously in the back (5-10 injections per course).
The phage or fusion peptides were subcutaneously injected and the progression of pregnancy was compared with mice injected with control phage, control peptides, or saline. Multiple injections of the TPKTSVT (SEQ ID NO:5) peptide were administered, starting at mid-pregnancy (˜12 days postconception, dpc) in doses non-toxic to the mother.

β5 integrin = target: T1, β5 integrin (Homo sapiens, UniProt P18084); test: Annexin V binding to GST-β5 integrin cytoplasmic domain (ELISA, competition)
T1 construct: Plates were coated with GST fusion proteins of the cytoplasmic domains of various integrins
T1 sequence (P18084 743-799 limits assumed): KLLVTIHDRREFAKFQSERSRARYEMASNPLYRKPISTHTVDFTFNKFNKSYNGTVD
Procedure: FIG. 29A. Competitive binding of Annexin V to β5 integrin with VISY peptide. Binding assays were performed by ELISA.
Competitive binding assays were performed to examine the binding of Annexin V to β5 integrin and the effect of the VISY peptide. Plates were coated with GST fusion proteins of the cytoplasmic domains of various integrins and Annexin V was added to the plates. Binding of Annexin V was determined using anti-Annexin V antibodies. […] Calcium was used because Annexin V activity has been reported to be modulated by calcium. Binding of Annexin V to GST-β5 was blocked by addition of the VISY peptide (FIG. 29A).
A reciprocal study was performed, using Annexin V to coat plates and adding GST fusion proteins of integrin cytoplasmic domains. Binding was assessed using anti-GST fusion protein antibodies. […] In some studies, calcium ion appeared to interfere with the binding interaction between GST-β5 and Annexin V, with decreased binding observed in the presence of calcium (not shown).

HUVEC cells = test: Apoptosis assay in HUVEC (propidium iodide, chromatin fragmentation); type: cell-based, human; settings: 10^6 HUVEC, 15 μM, 2-4 hours
Procedure: FIG. 26. Penetratin peptide chimera binding to the β5 cytoplasmic domain induces programmed cell death. 10^6 HUVEC cells were harvested in complete media and 15 μM penetratin peptide chimeras were added to the cells. […] (a) Profile obtained with starved cells after 24 h. (b) Confluent cells in complete media. (c) 15 μM of penetratin after four hours. (d) 15 μM of VISY-penetratin chimera after four hours.
FIG. 30. Chimeric peptide containing VISY peptide linked to penetratin (antennapedia) induces apoptosis. VISY induced apoptosis was inhibited by addition of a caspase inhibitor (zVAD).
Approximately 1×10^6 cells were harvested in complete media and 15 AM of peptide added for 4, 8, or 12 h. The cellswere then washed in PBS and resuspended in 0.5 ml propidium iodide solution (50 μg/ml PI, 0.1% Triton X-100, 0.1% sodium citrate). After a 24-h incubation at 4° C., cells were counted with a XL Coulter (Coulter Corporation) with a 488-nm laser; 12,000 cells were counted for each histogram, and cell cycle distributions were analyzed with Multicycle program.
Approximately 1×10^6 cells were harvested in complete medium, and 15 μM of peptide was added for 4, 8, or 12 hours. The cells were then washed in PBS and resuspended in 0.5 ml propidium iodide solution (50 μg/ml PI, 0.1% Triton X-100, 0.1% sodium citrate). After a 24-h incubation at 4° C., the cells were counted with an XL Coulter (Coulter Corporation) with a 488 nm laser; 12,000 cells were counted for each histogram, and cell cycle distributions were analyzed with the Multicycle program.
10^6 HUVEC were treated with 15 μM of VISY antennapedia (penetratin) chimera or 15 μM of antennapedia peptide (pentratin) alone for 2-4 hours and chromatin fragmentation was analyzed by electrophoresis in an agarose gel.

[5] = system: MDA-MB-435-derived tumor xenografts; test: In vivo tumor homing of APA-binding phage; design: species or system mouse
Procedure: FIG. 31. APA-binding phage specifically bind tumors. Equal amounts of phage were injected into the tail veins of mice bearing MDA-MB-435-derived tumors and phage were recovered after perfusion. Mean values for phage recovered from the tumor or control tissue (brain) and the standard error from triplicate platings are shown.
MDA-MB-435-derived tumor xenografts were established in female nude mice 2 months old (Jackson Labs, Bar Harbor, Me.). Mice were anesthetized with Avertin and injected intravenously through the tail vein with 10^9 TU of the phage in a 200 μl volume of DMEM. The phage were allowed to circulate for 5 min, and the animals were perfused through the heart with 5 ml of DMEM. The tumor and brain were dissected from each mouse, weighed, and equal amounts of tissue were homogenized. The tissue homogenates were washed three times with ice-cold DMEM containing a proteinase inhibitor cocktail and 0.1% BSA. Bound phage were rescued and counted as described for cell panning. Fd-tet phage was injected at the same input as a control. The experiment was repeated twice. In parallel, part of the same tissue samples were fixed in Bouin solution, and imbedded in paraffin for preparation of tissue sections. An antibody to M-13 phage (Amersham-Pharmacia) was used for the staining.

mouse spleen cells = test: Testing Fab clones in vitro using BRASIL; type: cell-based; settings: for binding to mouse spleen cells compared to Fd-tet control: BRASIL, FIG. 13; for binding to mouse spleen cells compared to NPC-3TT: FIG. 14
Procedure: FIG. 13. Spleen targeting in vitro using BRASIL. Binding of Fab clones #2, #6, #10, #12 and control Fab clone NPC-3TT were directly compared to each other.
A singe cell suspension was prepared from two mouse spleens. The suspension was divided into five tubes and incubated on ice with 3×10^9 TU of Fab clones #2, #6, #10, #12 and 2×10^9 TU tet-phage. Phage bound to mouse spleen cells were recovered by BRASIL. 200 μl of log phase ER2537 E.coli was infected with the pellet and serial dilutions were plated on LB/carbenicillin and LB/tetracycline plates for assessment of phage binding. Fd-tet was used as an internal control to normalize all the phage homing experiments.

mouse spleen = test: Testing Fab clones in vivo with BRASIL; settings: 5 minutes circulation
[6] = FITC conjugates-I, 1 mouse iv (predominantly) or ip ~every other day, day 1-day 18, 9 times, Total 450 mM (~450 μg)
[7] = FITC conjugates-II, 1 mouse sc (predominantly) or iv ~every other day, day 4-day 17, 10 times, Total 1M (~1 mg)

CARAC-FITC: FITC-conjugated control peptide CARAC (SEQ ID NO:12)
localization in placenta [1]: not detectable in the placenta
localization in white fat of wild-type mice ([2]; C57BL/6 (leptin+/+) mice, co-injected lectin-rhodamine): not detectable in white fat vasculature
localization in white fat of ob/ob mice ([2]; leptin-deficient mice): undetectable in adipose tissue
Peptide Effect on Embryo (placenta [3]; [6]): No effect
Pregnancy Outcome (placenta [3]; [6]): Delivery: 18 d, 5 normal pups
Peptide Effect on Embryo (placenta [3]; [7]): Slight toxicity?
Pregnancy Outcome (placenta [3]; [7]): Delivery: 20 d, 5 pups, 1-dead

TPKTSVT [placenta targeting peptide]
effect on materno-fetal transfer / vys uptake of TPKTSVT-phage on co-injection (placental transporter): blocked
toxicity to the mother (placenta [4]; data not shown): no signs of peptide toxicity to the mother were observed
histopathological examination of the placentas (placenta [4]; seven days of peptide administration): massive dilation of blood vessels and intraplacental bleeding, as well as widespread hemorrhagic necrosis

VVISYSMPD
inhibition of Annexin V binding to GST-β5 (β5 integrin; in the absence of calcium): 45%
inhibition of Annexin V binding to GST-β5 (β5 integrin; in the presence of calcium): 67%
induction of apoptosis (chromatin fragmentation) (HUVEC cells): Neither VISY nor penetratin alone induced apoptosis

CPKVCPRECESNC
anti-M13 immunostaining on tissue sections ([5]; not shown): Strong phage staining was apparent in tumor vasculature but not in normal vasculature
phage enrichment in tumor xenografts compared to brain tissue ([5]; nude mice, 10^9 TU iv, 5 min): 4 fold

B1: Fab clone #6: chicken anti-mouse spleen Fab phage clone selected by BRASIL (protein)
chain: CQPAMAAVTLDESGGGLQTPGGTLSLVCKASGISIGYGMNWVRQAPGKGLEYVASISGDGNFAHYGAPVKGRATISRDDGQNTVTLQLNNLR
binding to mouse spleen cells compared to Fd-tet control (mouse spleen cells): lowest degree of binding
binding to mouse spleen cells compared to NPC-3TT (mouse spleen cells): only slightly higher than the binding of phage NPC-3TT
binding / localization to spleen compared to Fd-tet phage (mouse spleen): many-fold increased binding to spleen

B2: Fab clone #12: chicken anti-mouse spleen Fab phage clone selected by BRASIL (protein)
chain: ANQPWPPLTLDESGGGLQTPGGALSLVCKASGFTMSSYDMFWVRQAPGKGLEFVAGISSSGSSTEYGAAVKGRATISRDNGQSTVRLQLNNLRAED
binding to mouse spleen cells compared to Fd-tet control (mouse spleen cells): selective binding to mouse spleen cells
binding to mouse spleen cells compared to NPC-3TT (mouse spleen cells): only slightly higher than the binding of phage NPC-3TT
binding / localization to spleen compared to Fd-tet phage (mouse spleen): did not exhibit significantly elevated binding to mouse spleen

B3: Fab clone #2: chicken anti-mouse spleen Fab phage clone selected by BRASIL (protein)
chain: CQPAMAAVTLDESGGGLQTPGGALSLVCKASGFTFNSYPMGWVRQAPGKGLEWVAVISSSGTTWYAPAVKGRATISRDNGQSTVRLQLSNLRAED
binding to mouse spleen cells compared to Fd-tet control (mouse spleen cells): at least a two-fold increased binding
binding to mouse spleen cells compared to NPC-3TT (mouse spleen cells): highest levels of binding to mouse spleen cells
binding / localization to spleen compared to Fd-tet phage (mouse spleen): many-fold increased binding to spleen
